According to the supplement of paper PMC10724198:
± gives the standard deviation of the averaged measurements.

What follows are sequences tested on Saccharomyces cerevisiae (assay: protein stability index of tFT-peptide fusion (C-terminal peptide) (PSI (0-1 scale)); higher = more stable (slower turnover)). Conditions: genetic background: wild type; temperature: 30 C.
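Note: PSI is a weighted mean of sequencing reads over stability bins, variants kept only with over 10 reads, mCherry proximal and sfGFP distal, peptide attached via GGGS linker.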

In order of falling protein stability index:
1. RRMHLNMKEREL  0.896 ± 0.054
2. RLLPLPRRTPPL  0.852 ± 0.11
3. RGPGAWFVSWWA  0.7886 ± 0.0029
4. RRVNDLGPPMRN  0.779 ± 0.092
5. RLLLPSTLLPPR  0.761 ± 0.13
6. RKYKNKRSKKEK  0.755 ± 0.1
7. RNIQKLNKIKKK  0.753 ± 0.15
8. RPPPLPPRPSPP  0.752 ± 0.12
9. RPLSSPPTRSRA  0.751 ± 0.038
10. RHPTITAPTPTP  0.748 ± 0.063
11. RIIRPRSTKDHP  0.745 ± 0.14
12. RIPLYAFLPPID  0.745 ± 0.066
13. RHDSYKSLHSNL  0.743 ± 0.05
14. RKKGKLESKKQK  0.742 ± 0.12
15. RQTNEHNNQNER  0.741 ± 0.082
16. RRMSQQCLPRQR  0.739 ± 0.047
17. RPRYITQGLPLL  0.738 ± 0.026
18. RHGDGGRGRVDG  0.736 ± 0.1
19. RLGARGGSRGRP  0.736 ± 0.012
20. RNTYKKREKNKK  0.7363 ± 0.0025
21. RNWCHGTVLNRL  0.736 ± 0.13
22. RRWSPPGLGCIE  0.735 ± 0.019
23. RSLVAATLSSLG  0.735 ± 0.045
24. RRLSVPFSPSAL  0.733 ± 0.032
25. RQNPRLPPPFQP  0.731 ± 0.052
26. RRGRGGGRRVDA  0.731 ± 0.021
27. RIGDVIRIAEIK  0.729 ± 0.069
28. RNIKIGKYMKRI  0.729 ± 0.034
29. RGSIKSYNTRKT  0.728 ± 0.009
30. RSHPTPQAHPSA  0.728 ± 0.051
31. RGEPPSAKEIAR  0.727 ± 0.045
32. RGRCGRLSRAGA  0.727 ± 0.041
33. RPPCLRPPPPPL  0.727 ± 0.012
34. RLPRSPPLPSCR  0.726 ± 0.016
35. RPPPPPPPPPSP  0.723 ± 0.089
36. RGGNVDSRKMNR  0.722 ± 0.018
37. RLRPPPRTLPTP  0.722 ± 0.011
38. RLIEDREWLGSR  0.721 ± 0.014
39. RLSSLRAFSLRS  0.721 ± 0.026
40. RSTGFHRVSCGI  0.72 ± 0.06
41. RLGALNHPLAAP  0.7183 ± 0.0057
42. RTLWGYCPRSPL  0.718 ± 0.021
43. RGGEGTQRRKLR  0.717 ± 0.077
44. RQESYYLYHTAR  0.717 ± 0.032
45. RRDELINVVKRT  0.717 ± 0.072
46. RLDVGAGGCLGG  0.716 ± 0.021
47. RRLFVMDKRKRK  0.716 ± 0.033
48. RKSERIKNKNGR  0.715 ± 0.037
49. RHILPNKCRLHH  0.714 ± 0.2
50. RKIRKKRERKGE  0.714 ± 0.2
51. RPPSPILPSSSP  0.714 ± 0.077
52. RRESQRRYRRML  0.714 ± 0.059
53. RLRSSTAAAAIV  0.713 ± 0.082
54. RRKGRLTAGWGR  0.713 ± 0.025
55. RGGGRGGSRTGA  0.712 ± 0.033
56. RGGGGGGQVAVG  0.711 ± 0.049
57. RLPPGATPYPPR  0.711 ± 0.013
58. RNFAPPFLPSPH  0.711 ± 0.066
59. RTGKVKNINISI  0.71064 ± 0.00038
60. RLCPWNLSDADL  0.71 ± 0.0091
61. RRCGETTEQTVR  0.71 ± 0.059
62. RLIIRYESYTSD  0.709 ± 0.013
63. RKAPLPDRGIPW  0.708 ± 0.017
64. RLGLRWSPHSSP  0.707 ± 0.01
65. RGGPQARRLRPY  0.706 ± 0.063
66. RSPYSSLHNPLC  0.706 ± 0.016
67. RKNDSKKNCVKE  0.705 ± 0.089
68. RPASPASSPFFP  0.70509 ± 0.00065
69. RLDRGLHIKAIT  0.704 ± 0.014
70. RLPAPPPHPPPP  0.7037 ± 0.0013
71. RSPPPVPELTRL  0.7042 ± 0.0051
72. RKSKRLDQSCTR  0.703 ± 0.035
73. RPSPPALPRFLL  0.703 ± 0.0073
74. RRDIPLSPVAFS  0.702 ± 0.031
75. RGQTSLTGERNK  0.701 ± 0.055
76. RNNRQAREKKKQ  0.701 ± 0.15
77. RPPNPPPALPPL  0.701 ± 0.056
78. RRPQPPHKTAMP  0.701 ± 0.078
79. RSTTRSTLSLHV  0.701 ± 0.021
80. RIKKKKKIKRNN  0.7 ± 0.02
81. RPRPPLASPSPP  0.7005 ± 0.0013
82. RRNGVVGRLGWV  0.7 ± 0.051
83. RNPLDGDSGSRG  0.699 ± 0.0076
84. RPTRSLYLLPLI  0.699 ± 0.019
85. RSSPPPRHDPSP  0.696 ± 0.088
86. RILLSPLSQSQP  0.695 ± 0.025
87. RNRRKTLMETRS  0.695 ± 0.082
88. RPSTHPPATPPR  0.695 ± 0.07
89. RTSEAGKQHEWK  0.695 ± 0.0074
90. RLGLSIASAPCL  0.693 ± 0.062
91. RKKINKRLCLGN  0.692 ± 0.033
92. RRPCTSSHAKAP  0.692 ± 0.021
93. RKTGTGETRTRR  0.691 ± 0.015
94. RNRDKKGDMILK  0.691 ± 0.0086
95. RPEKGLESGQRV  0.69 ± 0.064
96. RSKPIQAIPNPV  0.69 ± 0.03
97. RGFRPLGSGILI  0.689 ± 0.051
98. RKKQYEKKSEKP  0.689 ± 0.11
99. RPLPASTTLCVL  0.689 ± 0.11
100. RGGDGGGLRTRD  0.688 ± 0.037
101. RGVDVWQGRTVP  0.6879 ± 0.0031
102. RMNSCVLLDGFA  0.687 ± 0.03
103. RNSDPRLGGNTF  0.687 ± 0.052
104. RHIKIADYKTLT  0.686 ± 0.04
105. RRRTDDSTPGRA  0.686 ± 0.025
106. RGEVSGRVGRVG  0.684 ± 0.058
107. RGGVGRLEGCRG  0.684 ± 0.066
108. RSPPHSNLAHCI  0.684 ± 0.037
109. RGMVPREKHQNS  0.683 ± 0.013
110. RGVGGRGIGFPR  0.6826 ± 0.0058
111. RSVIEHKMRKKR  0.682 ± 0.026
112. RGRGKRNDPEKR  0.681 ± 0.036
113. RTAYLLRCLTTD  0.681 ± 0.026
114. RGPGMVRAFAEA  0.679 ± 0.011
115. RTRKARTHGRAQ  0.679 ± 0.0092
116. RGVGGRALGVGR  0.678 ± 0.038
117. RLWFPSARLRFT  0.678 ± 0.06
118. RHRLTPLTQYPS  0.677 ± 0.062
119. RLGFCGLGHRCE  0.677 ± 0.033
120. RPLALHSYPCSP  0.6771 ± 0.00072
121. RSSRGGFAFVYR  0.676 ± 0.03
122. RNTRAPTRNVPE  0.674 ± 0.028
123. RSGLARPSPLTR  0.67445 ± 0.00024
124. RGRTLVVPAPDT  0.673 ± 0.017
125. RKLYMCMRTKGD  0.673 ± 0.046
126. RGKTIQGNADPK  0.672 ± 0.032
127. RRCSCGFLCIDS  0.672 ± 0.14
128. RRVRRRRTGGAW  0.669 ± 0.005
129. RLPSAPPRQPTH  0.667 ± 0.061
130. RPCSVPFSNTSP  0.666 ± 0.0067
131. RLCLLVVPLLPP  0.665 ± 0.055
132. RLRQTLPTWVTT  0.665 ± 0.015
133. RPSNPPTKSQPS  0.665 ± 0.019
134. RGPFSGKCEPSM  0.663 ± 0.049
135. RKEEKKEGKGTR  0.663 ± 0.062
136. RLLLSRCSFLPT  0.663 ± 0.03
137. RPSTSRKVKIDV  0.663 ± 0.066
138. RKEKRKRRGEAN  0.662 ± 0.061
139. RKVKGKKRYTEG  0.662 ± 0.058
140. RMINHGNKAKFS  0.662 ± 0.016
141. RQLPPRAPAARG  0.661 ± 0.028
142. RTSKSCVEFTMG  0.661 ± 0.011
143. RKCDKVGCDEKA  0.66 ± 0.02
144. RTKLFGIVGRQL  0.659 ± 0.036
145. RGGGAARGGGVG  0.658 ± 0.009
146. RGGGGGRKVSVG  0.658 ± 0.062
147. RHPPVPCIAQIR  0.658 ± 0.024
148. RRRQAEEDERNG  0.658 ± 0.07
149. RLVFDTGPPFIN  0.657 ± 0.042
150. RMGAEDTGCRRP  0.657 ± 0.062
151. RRERQNEKMTYH  0.656 ± 0.078
152. RKGDRAQRWRDL  0.655 ± 0.12
153. RSRSIPTTLCLP  0.655 ± 0.026
154. RGRGSLPGFKSL  0.654 ± 0.058
155. RLLFLPPPPPPP  0.654 ± 0.082
156. RSFRCWVQGYCG  0.654 ± 0.044
157. RGTYRYNFSQKK  0.652 ± 0.12
158. RSLRLPPRTPLP  0.652 ± 0.04
159. RLPPRPPPRPPT  0.6514 ± 0.006
160. RKEESKKEKNKI  0.65 ± 0.11
161. RLLRDFQSVGGD  0.6498 ± 0.0014
162. RHKVVLQPRPQV  0.649 ± 0.039
163. RIPTALLAPYAQ  0.649 ± 0.03
164. RSPNSSPPPSIS  0.648 ± 0.014
165. RRTTGLGWSGRP  0.644 ± 0.025
166. RSGVSCPRVDDR  0.643 ± 0.05
167. RLRSWLGIALFL  0.642 ± 0.0067
168. RLFIALFPPFYL  0.64 ± 0.05
169. RSSLAVSTKVER  0.639 ± 0.02
170. RTHRKNRRYKKN  0.639 ± 0.0072
171. RLGAEYNWVNLS  0.6362 ± 0.0026
172. RPPVPSLLPEPT  0.6313 ± 0.0043
173. RPSGFVGSDVRV  0.629 ± 0.071
174. RSETGYGTSWGA  0.627 ± 0.026
175. RRFQYLTENYQK  0.6208 ± 0.0047
176. RSSVTIIGDINK  0.619 ± 0.016
177. RREKGEARGRGG  0.618 ± 0.013
178. RRGAGCAAVGLG  0.618 ± 0.024
179. RTTAGINAFPGV  0.6184 ± 0.0051
180. RHFFRYYLDHPS  0.617 ± 0.035
181. RPPIGTLCSINF  0.614 ± 0.13
182. RREKRPMKKGGR  0.6126 ± 0.002
183. RSGWRLLHLTTL  0.613 ± 0.013
184. RKPTSFFSRIVN  0.611 ± 0.026
185. RRSSLGIYWIYS  0.61 ± 0.037
186. RRCCLDPGGLLS  0.607 ± 0.0078
187. RGGWRGVWGHVV  0.599 ± 0.033
188. RLCLFPVAPLLS  0.599 ± 0.03
189. RLTALVYFISPL  0.597 ± 0.017
190. RLLPPSLAQRNN  0.5909 ± 0.0011
191. RRVVIVSGWGWG  0.591 ± 0.064
192. RGSFGAWTVGGQ  0.59 ± 0.026
193. RLSSLSPFLVLS  0.589 ± 0.0084
194. RRCRPPTRRTKE  0.587 ± 0.053
195. RMIQKFGLGVVV  0.5613 ± 0.0047
196. RRFLRRISAFAS  0.558 ± 0.06
197. RKRPTQAMIFNI  0.5568 ± 0.0013
198. RGWGVLCGGGWG  0.556 ± 0.053
199. RGVPWVVFSVGA  0.542 ± 0.015
200. RPLVSRLPIFIR  0.506 ± 0.014
201. RGPARFYVRVSV  0.498 ± 0.0077
202. RGLYQCFLLDIV  0.472 ± 0.047
